For this assay, the target named is talin R3 IVVI domain in the (R3)-(I91)8 construct (mouse). The assay is described as follows: magnetic tweezers force spectroscopy.

In turn, vinculin head (domain or fragment) showed a concentration at half the maximum binding velocity, 9 pN of 90 nM and a stoichiometry N of 2.

For the origin of these results see PMC7244311.
